Test results taken from US20200164068A1, “MODULATORS OF TUMOR IMMUNE RESISTANCE FOR THE TREATMENT OF CANCER” (DEUTSCHES KREBSFORSCHUNGSZENTRUM STIFTUNG DES ÖFFENTLICHEN …, priority 2016, published 2020).

B1: CCR9-specific shRNA (nucleic acid)
DNA: ACCGGGCCAGTGGAGGTCTTTGTTCTGTTAATATTCATAGCAGAACAAGGACCTTCACTGGCTTTT

Key:
MCF7 cells = assay: Chromium-release cytotoxicity assay, MCF7 cells and survivin-specific CTL; assay type: cell-based; conditions: MCF7 cells pre-treated with 250 ng/ml PTX for 1 h, compared to CCR9 gene knockdown
Experimental: (§1) Tumor cells were transfected with the described siRNAs using RNAiMAX or with pCMV6-AC-His-CCR9 encoding vector and empty control vector (OriGene, Rockville, USA) using TransIT-LT1. 72 h later, transfected cells were harvested for chromium-release cytotoxicity assay as detailed in Supplementary Methods. For CCR9 blockade using pertussis toxin (PTX), […] tumor cells were incubated with 250 ng/ml of PTX (Sigma Aldrich) for 1 h at 37° C. before labeling with radioactive chromium.

CCR9+ tumor cells = assay: Transwell migration assay toward CCL25; assay type: cell-based
M579-A2 tumor cells = assay: Chromium-release cytotoxicity assay, M579-A2 melanoma cells and TIL 209; assay type: cell-based, human; conditions: stable CCR9 knockdown M579-A2 versus shControl
Excerpt: MCF7, MDA-MB-231 (breast cancer), and PANC-1 pancreatic cancer cells were acquired from American Type Cell Culture (Wesel, Germany). MCF7luc cells were generated by electroporation with pEGFP-Luc plasmid and expansion of sorted GFP+ clones in selection medium containing […] G418 (Gibco, UK). M579-A2 melanoma culture was established from a patient and stably transfected with HLA-A2 expression construct as described before (Machlenkin et al, 2008). For stable CCR9 knockdown, lentiviral particles were produced using the pRSI9-U6-TagRFP-2APuro lentiviral expression vector (Cellecta) that contained either the CCR9-specific shRNA hairpin ([…]: SEQ ID NO. 5) or control nontargeting shRNA. Viruses were packaged using the psPAX2 and pMD2.G packaging plasmids (Addgene), and tumor cell lines were transduced with the viral particles as per the manufacturer's protocol.
as §1

CCL25 = assay: ELISA of CCL25 levels in tumor cell lysates; assay type: cell-based; conditions: stable knockdown
HLA-A2 = assay: Surface HLA-A2 expression on M579-A2 cells; assay type: cell-based, human; conditions: M579-A2 upon CCR9 knockdown
M579-A2 tumors = assay: In vivo M579-A2 tumor growth in NSG mice with adoptive TIL 209 transfer
Experimental: Appropriate approval for animal work was obtained from the regulatory authorities (Regierungsprasidium, Karlsruhe) before the start of the experiment. Four- to six-week-old female NSG mice were ordered from the Animal Core Facility at DKFZ, Heidelberg. Mice were subcutaneously injected with 5×10^5 cells (in 100 μl of matrigel per injection) of each CCR9-M579-A2 (transduced with CCR9-specific shRNA) and CCR9+M579-A2 (transduced with non-targeting control shRNA) cell lines in the left and the right flank, respectively. Following this, at Day 2 and Day 9, 7 out of the 10 tumor-bearing mice received adoptive transfer of expanded TIL 209 cells intravenously into the tail vein (1×10^7 cells/100 μl PBS/mouse). The remaining three mice were injected with PBS alone to assess tumor growth in the absence of adoptive TIL transfer. Tumor measurements were performed using a digital caliper (Carl Roth) at the indicated time points, and tumor volume was measured using the formula: volume=height*width*width*(n/3).
Differences between test and control groups were analyzed by two-sided Student's t-test. In all statistical tests, a P-value <0.05 was considered significant. Statistical difference between the tumor growth curves in vivo was assessed using the unpaired one-sided Mann-Whitney U-test.

Molecule | Tumor lysis by antigen-specific T cells (MCF7 cells) | Migration of CCR9+ tumor cells toward CCL25 (CCR9+ tumor cells) | Immune lysis by tumor-infiltrating lymphocytes (TIL 209) (M579-A2 tumor cells) | CCL25 production by MCF7 breast cancer cells (CCL25) | Surface HLA-A2 expression (HLA-A2) | Tumor growth kinetic without T cell transfer (M579-A2 tumors; CCR9- versus CCR9+ M579-A2 tumors in NSG mice given PBS alone) | Tumor growth in response to adoptive T cell transfer (M579-A2 tumors; CCR9- versus CCR9+ M579-A2 tumors s.c. in NSG mice, TIL 209 i.v. at Day 2 and Day 9)
pertussis toxin | did not elicit elevated tumor lysis | inhibited the migration |  |  |  |  | 
B1 |  |  | more susceptible to immune lysis | did not affect | no significant difference | No difference | grew significantly slower
